Results published in publication PMC12948240.

What was measured:
immunoblot, HEK293T = details: glycan lost; control: FOXK1 WT, PFOS-treated
[1] = cycloheximide chase, PES1 immunoblot, HEK293T; details: glycan lost; control: FOXK1 WT
[2] = PES1 IP, HA-Ub blot, MG132, HEK293T; details: glycan lost; control: FOXK1 WT, PFOS-treated

B1: forkhead box k1 (FOXK1): FOXK1 T573A (protein)
parent chain: MAEVGEDSGARALLALRSAPCSPVLCAAAAAAAFPATTSPPPPAQPPPGPPALPAEPGPGPVPSTVATATTTAPALVAAAAASVRQSPGPALARLEGREFEFLMRQPSVTIGRNSSQGSVDLSMGLSSFISRRHLQLSFQEPHFYLRCLGKNGVFVDGAFQRRGAPALQLPQQCTFRFPSTAIKIQFTSLYHKEEAPASPLRPLYPQISPLKIHIPEPDLRSLVSPIPSPTGTISVPNSCPASPRGAGSSSYRFVQNVTSDLQLAAEFAAKAASEQQADASGGDSPKDESKPPYSYAQLIVQAISSAQDRQLTLSGIYAHITKHYPYYRTADKGWQNSIRHNLSLNRYFIKVPRSQEEPGKGSFWRIDPASEAKLVEQAFRKRRQRGVSCFRTPFGPLSSRSAPASPTHPGLMSPRSSGLQTPECLSREGSPIPHDPDLGSKLASVPEYRYSQSAPGSPVSAQPVIMAVPPRPSNLVAKPVAYMPASIVTSQQPSGHAIHVVQQAPTVTMVRVVTTSANSANGYILASQGSTGTSHDTAGTAVLDLGNEARGLEEKPTIAFATIPAASRVIQTVASQMAPGVPGHTVTILQPATPVTIGQHHLPVRAVTQNGKHAVPTNSLTGNAYALSSPLQLLAAQASSSTPVVITRVCEVGPEEPAAAVSVAANAAPTPAASTTTSASSSGEPEVKRSRVEEPGGTATTQPTAMAATGPQGPGTGE
With B1 the “other: PES1 protein level” value (immunoblot, HEK293T) was “decreases”, the “other: PES1 degradation” value [1] was “increases” and the “other: PES1 ubiquitination” value [2] was “increases”.
